The nanobody polyreactivity screen of Harvey et al. (2022)

Assay: yeast display, Sf9 membrane polyspecificity reagent, FACS + sequencing; frameworks hold sequencing errors
Procedure, shortened: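 After 36–48 hours of galactose induction, yeast (Saccharomyces cerevisiae BJ5465) displaying a synthetic nanobody library were stained at 4 °C for 1 hour with 10% biotinylated, detergent-solubilized Sf9 membrane reagent. Streptavidin microbeads enriched the stained cells before FACS sorting into low and high (top ~1%) gates on anti-HA and streptavidin fluorescence. Each clone's polyreactivity label reflects its gate of origin.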

Row | Sequence | polyreactivity (PSR sort gate)
1 | QVQLQESAGGLVQAGGSLRLRCSASGYISCDASMGWYRQAAGKERELAASITKGSSTNYADSVKGRFTIRDNAKNTVYLQMNSLKPEDTAVCYCAVTYPYWGDYTYWGQGTQVTVSS | low polyreactivity
2 | QVQLQESGAGLVQAGGSLRLSCAASGSISAVGAMCWYRQAPGKEREFAASVNWATNTNYADSVKGRFTISRDNAKNTLYLQMNSLKPEDTAVYYCAVLPDWETRHDYWGHGTQVTVSS | low polyreactivity
3 | QVQLQESGCGLVQAGGSLRLTCAASGSISYPRTMGWSRQAPGKEREFVAGIGVGGTTYYADSVIGRFTISRDNAKNTVYLQMNSLKPEDTAVYYCAVYSGDDYYHDYWGQGTQVTVSS | low polyreactivity
4 | QVQLQESGCGLVQVGGSLRLSCAASGTTFIYGFLGWNRQAPGKERELVASINLGGFTNYADSVKGRFTISRDNAKNTVYLQMISLNPEDSAVFYCAAYVVTGQNYGYWGKGTQVTVSS | low polyreactivity
5 | QVQLQESGDGLVQAGGSLRLSCAASGNIYDADIMGWYRQAPGKERELVTSITDGGSTNYADSVKGRFTISRDNAKNTVYLQMNSLKPEDTAVYYCAAIAYPDIPTSFDYNSDYSYWGQGTQVTVSS | low polyreactivity
6 | QVQLQESGGDLEQAGGSLRLSCTASGTNSDVRVMGWYRQAPGKERELVATISYVTITYYADSVKGRLTISRDSEKHRVSADDEPETGRYRGVLLRYYWGLGTQVTVSS | low polyreactivity
7 | QVQLQESGGGLAQAGGSLRLICAASGTLFPADSMGWYRQAPGKERELVAGITSGANTYYADSVNGRFTISHDNAKQTVYLQMDSLIPEDIAVYYCAAPGSSTYDLESWGQGTQVNVSS | high polyreactivity
8 | QVQLQESGGGLAQAGGSLRLSCAASGNIFDADIMGWYRQAPGKERELVGSITDGGSTNYVDSVKGRFTISRDNAKNTVHLQMNSLKPEDTAVYYCAAIAYPDIPTYFDYDSDCFNWGHGTQVTVSS | high polyreactivity
9 | QVQLQESGGGLAQAGGSQRLSCAASGTIFAADSMGWYRQAPGKERELVAGITSGANTYYADSVKGRYTISHDNAKKTVYLQMDSLIPEAIAVYYCAAPGSTTYDLEYWGQGTQVTVSS | high polyreactivity
10 | QVQLQESGGGLEQAGGSLRLSCAASGYIFPTAIKGWYRQAPGKERKLVAAINPGSNTYYADSVKGRFTFSRDNANNSVYLQMNSLKPEDAAVYYCGVSIWLVGTLDYWGQGTQVTVSS | low polyreactivity
11 | QVQLQESGGGLEQAGGSLRLSCAASGYITDIGTMGWYRQAPGKEREFVATIVVGSTTNYADSVKGRFTISRDNAKNTVYLQPESGRYRGVLLRGWLLAVGNFTYWGQGTQETVSS | low polyreactivity
12 | QVQLQESGGGLEQAGGSLRMSCAANGNIFDADIVGRYRQAPGKKRELVASITDGGITNYADSVKGRFTISRDNAKYTVYLQMNSQNPEDTAVYYCAAIAYPDIPTYFDYDSDFFYWGQGTQVTVSS | high polyreactivity
13 | QVQLQESGGGLEQAGGSLRMSCAANGNIFDSDIVGRYRQAPGKKRELVASITDGGITNYADSVKGRFTISRDNAKYTVYLQMNSQNPVDTAVYYCAAIAYPDIPTYFDYDSDFFYWGQGTQVTVSS | high polyreactivity
14 | QVQLQESGGGLLQAGGSLRLSCAASGNFFDADIMGWYRQAPGKERELVASITDGGSTNYADRVKGRFTISRGNTKNTVYLLMNCLKPDDTSVYYCAAIAYPDIPTYFDYNSDYFYGGQGTQVTVSS | high polyreactivity
15 | QVQLQESGGGLLQAGGSLRLSCAASGNIFLSIFMGWYRQAPGKEREFVAGIGSGTNTNYADSVKGRFTISRDNAKNTVYLQMNSLKPEDTAGYYSAAGRFGLYYHGYWGLGTQVTVSS | high polyreactivity
16 | QVQLQESGGGLMQAGGSLRLSCTASGTISDVRVMGWYRQAPGRERELVATISYVTITYYADSVKGRFTISRDSEKHRVSADDEPETGRYRGVLLRYYWGLGTQVTVSS | low polyreactivity
17 | QVQLQESGGGLMQAGGSQRLSCAASGSISYYSDMCWYRQAPGKEREFVAGIGYGTTTNYADSVKGRFTTSRDNAKNTVYLQMISMKPEDTAVYYCAAYQGNGYEFYYWGQGTQVTVRS | low polyreactivity
18 | QVQLQESGGGLMQAGGSQRLSCAESGSISYYSDMGWYRQAPGKEREFVAGIGYGTTTNYADSVKGRFTTSRDNAKNTVYLQMISMKPEDTAVYSCAAYQGNGYEFYYWGQGTQVTVRS | low polyreactivity
19 | QVQLQESGGGLVEAGGTLRLSCAASGSYSADEDMGWYRQAQGKEREFVAGISVGGNTNYADSVKGRFTSSRENAKNSLFLQINSLKPEDTAVYYCAVLPDVYDALDYWAQGTQVTVSS | high polyreactivity
20 | QVQLQESGGGLVKAGGSLRLSCAASGNISNHNDMGWYRQAPGKEREFVAGITAGGITNYADSVKGRFTISRDNAKNTVYLLMKRLKPEDTAVYYCAAYPDYAKSYGFWGQGTQATVSS | low polyreactivity
21 | QVQLQESGGGLVKAGGSLRLSCAASGNISPRDAMGWYRQAPGEERDLVASNAYSAITYYADGVKGRYTISRDNAKNTVYLQMNSLKPEDTVVYYCAVYQFTYPVFPAYWGQGTQVTVSS | low polyreactivity
22 | QVQLQESGGGLVLAGGSLRLSCAASGSISAQAYMGWDRQAPGKEREHVAGINYGDNTNYADSVKGRFTISRDNEHSVSADEQPETGRYRGVLLRGFLELFYYYIYWGQGTQVTVSS | high polyreactivity

Row | Sequence | polyreactivity (PSR sort gate)
23 | QVQLQESGGGLVLAGGSLRLSCAESGYISWSFTMGWYRTAPGKERELVAGITYGGITYYADSVKGRFTISRDNAKNTVYLQMNSLKPEDTAVYYCNARKHGQGRNGYGSWGQGTQVTVSS | high polyreactivity
24 | QVQLQESGGGLVQACGSLRLSCAASGTITVLYKMGWFRQAPGKEREFVASINYGTSTYYADSVKGRFTVSRDSAKNTVYLQMNSLKPEDTAVYYCAAAYRWQDVYRYWGQGTQVTVSS | low polyreactivity
25 | QVQLQESGGGLVQAGASLRLSCAASGSIYDDTYMGSYRQAPGKERELVATIDSGSTTNYADSVKGRITISRDNEKNTVYLQMNSLKPEDSAVYYCAAADSHIDYFDYWGQGTQVTVSS | low polyreactivity
26 | QVQLQESGGGLVQAGASQRLSCAASGYIFYFQYMGWYRQAPGKEREFVAAISDGANTNYADSVKGRFTISRDNAKNTEYLQMNSLKPEDTAVYYCAVYADENYYYIYWGQGTQVTVSS | low polyreactivity
27 | QVQLQESGGGLVQAGDSLRLSCAASGTISGRDSMGWYRQAPGKEREFVASIDFGTNTYYADSVKGRFTISRDNAKNTVYLQMNRLTAVYYCAAPDSQYSYWGQGTQVTESS | high polyreactivity
28 | QVQLQESGGGLVQAGGDLRLSCAASGNIFRDYIMGWNRQAPGKEREFVAGIDRGANTNYADSVKGRFTISRDNAKNTVYLQMNSLKPEDTAVYYCAVHTDIVPDFIYWGQGTQVTVSS | low polyreactivity
29 | QVQLQESGGGLVQAGGDLRLSCAASGNIFRDYIMGWYREAPGKEREFVAGIDRGANPNYADSVKGRFTISRDNAKNTVYLQMNSLKPEDTAVYYCAVHTAIVADFIYWGQGTQVTVSS | low polyreactivity
30 | QVQLQESGGGLVQAGGILRLSCASCGNIIPSAVMVWYRQALGKEREFVATINSGSNTYYADSVKGRFTISRDNAKITVYQQMNILKLEDTAVYYCAAYFKLPAWHTYWGQGTQVTVSS | low polyreactivity
31 | QVQLQESGGGLVQAGGSLCLSCAASGTIFFDGDMGWYRQAPGKEREFVAAINPGGSAYYADSVKGRLPLAAITHTVYLQMNSLKPEDTAVYYCAAKLFDVYGYYYWGQGTHVTVSS | low polyreactivity
32 | QVQLQESGGGLVQAGGSLLLSCAASGTICDSGLMGWYRQAPGKERELVDVISSGGITNYADSVKGRYTISRDNAKNTVYMQMNSLKPEDTAVYWGQGPQVTVSS | low polyreactivity
33 | QVQLQESGGGLVQAGGSLRLGCAASGNISDAGYMGWYRQAPGKEREFVAAIAAGSNTNYADSVKGRFTISRDNAKNTVYLQMNSLKPEDTAVFYCAVASYARVQYQYWGQGTQVTVNS | low polyreactivity
34 | QVQLQESGGGLVQAGGSLRLGCAASGYISGFNEMGWYRQAPGKERELDAAITNGGISNYADSVKGRFTISRDNAKNTVYLQMNSLKPEDTAMYYCAAGDFDQSNHAYWGQDTQVTVSS | high polyreactivity
35 | QVQLQESGGGLVQAGGSLRLRCAASRNNSGSSDLGWYHQAPGKEREFVASITSGGTTYYADSVKGRFTISRDNAKNTVYLQMNSLKPEDTAVYYCAVGDPADAEFGYWGQGTQVTVSS | low polyreactivity
36 | QVQLQESGGGLVQAGGSLRLSCAARGNNSSYYRMGWYRQAPGQEREFVATIAVGGTTNYADSVKGRFTISRDNEKTTLYLQRNSLKPEDTAVCFCAANSTQYTWFDYWGQGTQVPVSS | low polyreactivity
37 | QVQLQESGGGLVQAGGSLRLSCAASGNIFLGGDKGWYRQAPGKEREFVAAISDGTSTNYADSVKGRFTISRDNAKNTVYLQMNSLKPEDTAVYYCAAQYRYQRYSYAMEYWGQGTQVTVSS | high polyreactivity
38 | QVQLQESGGGLVQAGGSLRLSCAASGNISSYYRMGWYRQAPGKEREFVATIAVGGTTNYADSVKGRFTISRDNAINTVFLQRNSLNTEDTAVCFCAANSTQYTWFDYWGQGTQVPVSS | low polyreactivity
39 | QVQLQESGGGLVQAGGSLRLSCAASGNIVDADIMGWYRQAPGKERELVASITDGGSTNYADSEKGRFTICRDNAKNTVYLQMNSVKPEDTAVYYCAAMAYPDIPTSFDYDSEYFYWGQGTQVKVSS | low polyreactivity
40 | QVQLQESGGGLVQAGGSLRLSCAASGPISRRSTMGWNRQAPGKERELVTAITRGTNTNYADSVKGRFTISRDNAKNTEYLQMNSLKPVDTAVYYCAAYGVLKPSRGDAVFHRYWGQGTQVTVSS | low polyreactivity
41 | QVQLQESGGGLVQAGGSLRLSCAASGPISRRSTMGWYRQAPGKERELVTAITRGTNTNYADSVKGRFTISRDNAKNTEYLQMNSLKPVDTAVYYCAAYGVLNPSRGDAVFHRYWGQGTQVSVSS | low polyreactivity
42 | QVQLQESGGGLVQAGGSLRLSCAASGSIFDGFNMGWNRQAPGKEREFVAAISYGASTYYADSVKGRFTVSRDNAKNCVYLQMNSLKPEDSAVYYCAVYDELYQVLVYWGRGTQVTVSS | low polyreactivity
43 | QVQLQESGGGLVQAGGSLRLSCAASGSIFDGFNMGWYRQAPGKEREFVAAISYGASTYYADSVKGRFTVSRDNAKNSVYLQMNSLKPEATAVYYCAVYDELYHVLVYWGRGTQVTVSS | low polyreactivity
44 | QVQLQESGGGLVQAGGSLRLSCAASGSIFDYVSMGWYRQAPGEERELVVTITLGSNTYYADSVKGRFTISSDIAKNTVYLQMNSLNPEDTAVYYCAASALWGYVYPYWGLGTQVTVSS | high polyreactivity
